Reference: patent US20240327510A1, “DRUG FOR PREVENTING, ALLEVIATING OR TREATING MUCOSAL ADHESION AND USE THEREOF” (SHANGHAI SYNVIDA BIOTECHNOLOGY CO. LTD., priority 2021, published 2024)

Legend:
[1] = system: subcutaneous mucosal fibroblasts; experiment: TGFβ activated mucosal fibroblasts treated with antibody: hydroxyproline in supernatant and QPCR of Col7a1, ACTA2; format: cell-based, humanized Pear1 mice; conditions: 1 μg/mL antibody, 10 ng/mL TGFβ, 48 hours; versus control group
Protocol: After the treatment of starvation in cultured mucosal or subcutaneous derived fibroblasts for 12 hours, 1 μg/mL anti-human Pear1 monoclonal antibody (including LF2 antibody or hLF105 antibody) was added separately to treat the cells. After 30 minutes, 10 ng/mL TGFβ was added to treat the cells for 48 hours, then the cell supernatant was collected. The content of hydroxyproline was detected using the hydroxyproline detection kit of Nanjing Jiancheng Biology Co., Ltd. according to the instructions.
Mucosal fibroblasts in Method 5 were collected. Total mRNA was extracted by Trizol method (Invitrogen, Carlsbad, CA) according to standard protocols. Complementary DNA was synthesized using reverse transcriptase (Takara). ABI7000 Real-time PCR instrument (Life Technologies) was used to detect gene expression and the PCR primer sequences are shown in Table 5. The 18sRNA gene was used as an internal reference.
To further investigate the role of targeting Pear1 in inhibiting mucosal fibroblast activation, subcutaneous mucosal fibroblasts were isolated from humanized Pear1 mice and cultured in vitro. TGFβ activated fibroblasts were treated with anti-human Pear1 monoclonal antibodies (including LF2 or hLF105) for 48 hours, and the supernatants were collected to detect the content of hydroxyproline. The cells were collected for QPCR to detect the expression levels of extracellular matrix proteins such as collagen 7a1 (Col 7a1) and smooth muscle actin a2 (ACTA2) to characterize fibroblast activation and collagen synthesis.

[2] = system: humanized Pear1 mice; experiment: Subcutaneous mucosal adhesion model, HE and Masson staining at wounded site; format: in vivo; conditions: 5 micrograms at the wounded site every 7 days; 14th day; versus control group
Source text: Mice were anesthetized by intraperitoneal injection of pentobarbital sodium. The hair is depilated and sterilized, and the skin is excised. A thin layer of bonding agent was applied to one side of the silicone plate to fix the wound concentrically with a clamping board. Each clamping board was sutured at regular intervals with eight stitches to secure it to the intact tissue around the wound, preventing contraction of the wound edges. Sterile dressings were cut into circular shapes and attached to the silicone board for protecting the wound, preventing the animals from scratching or chewing. The anti-human Pear1 monoclonal antibody was […].
Mice were anesthetized using isoflurane, maintaining a flow of 2% isoflurane. The sterile dressings on the silicone board were peeled off (or not peeled off). Pictures were taken at the wounded sites next to the fixed position and scale bar. If necessary, sterile dressings can be reapplied. Image J was used to process the photos. The wounded area can be calculated according to the circled area by the scale.
[…] were fixed in 4% paraformaldehyde for 48 hours, after paraffin embedding, a semi-automatic rotary slicing machine (Leica; rm2235 and cm1950) was used for slicing, dewaxing is carried out at room temperature, gradient ethanol is used for rehydration, HE and Masson staining were then performed.
Subsequently, in order to detect the role of targeting Pear1 in inhibiting adhesion formation in vivo, the inventors constructed an adhesion model in humanized Pear1 mice, and at the same time instilled anti-human Pear1 monoclonal antibodies (including LF2 or hLF105) each at a dose of 5 micrograms at the wounded site, with once administration every 7 days. On the 14th day, the subcutaneous mucosal tissue at the wounded site was removed, stained with HE and Masson, and photographed under a microscope. The thickness of the subcutaneous mucosa and skin and the area of collagen were counted by Image J software for indicating the formation of adhesions.

[3] = system: humanized Pear1 mice; experiment: Peritoneal adhesion model, BhatiaDS score; format: in vivo; set-up: key to BhatiaDS score: grade 0: no adhesion; grade I: adhesive area of the area treated in the caecums of vermiform/total area of the treated area<50%, easy for blunt separation; grade II: above-mentioned area ratio≥50%, easy for blunt dissection; Grade III: Regardless of the size of the adhesive area, as long as the adhesion is difficult to separate, blunt separation can still be performed, but the intestinal wall is obviously damaged after separation; Grade IV: Regardless of the size of the adhesive area, as long as the adhesion is firm and can no longer be bluntly separated, required sharp separation
Source text: The model was made in humanized mice within 3 cm from the caecums of vermiform in peritoneal cavity, following the methods in the literature (Zhiliang Zhang, et al., Characteristics of genesis and development of peritoneal adhesion by different causes: experiment with rats, Chinese Journal of Medicine, 2005). The mice were divided into 3 groups. groups, with 20 mice in each group: A, control group with normal saline; B, prophylactic intraperitoneal injection of anti-human Pear1 monoclonal antibody (including LF2 or hLF105 antibody) 0.5 mg/kg, once a week; C, prophylactic intraperitoneal injection of anti-human Pear1 monoclonal antibody 1 mg/kg, once a week. After the mice were euthanized at 2 time points of 2 weeks and 4 weeks, an inverted “U”-shaped incision was selected to enter the abdomen, avoiding the original surgical incision. […] And the degree of adhesion in the peritoneal adhesion model was evaluated. […]
According to the scoring standard of BhatiaDS, grade 0: no adhesion; grade I: adhesive area of the area treated in the caecums of vermiform/total area of the treated area<50%, easy for blunt separation; grade II: above-mentioned area ratio≥50%, easy for blunt dissection; Grade III: Regardless of the size of the adhesive area, as long as the adhesion is difficult to separate, blunt separation can still be performed, but the intestinal wall is obviously damaged after separation; Grade IV: Regardless of the size of the adhesive area, as long as the adhesion is firm and can no longer be bluntly separated, required sharp separation. Each mouse was scored by 3 people respectively, and the average value was taken as the score of adhesion in this sample.

[4] = system: humanized Pear1 mice; experiment: Peritoneal adhesion model, determination of hydroxyproline in tissues; format: in vivo; conditions: versus control group
Source text: (§1) The model was made in humanized mice within 3 cm from the caecums of vermiform in peritoneal cavity, following the methods in the literature (Zhiliang Zhang, et al., Characteristics of genesis and development of peritoneal adhesion by different causes: experiment with rats, Chinese Journal of Medicine, 2005). The mice were divided into 3 groups. groups, with 20 mice in each group: A, control group with normal saline; B, prophylactic intraperitoneal injection of anti-human Pear1 monoclonal antibody (including LF2 or hLF105 antibody) 0.5 mg/kg, once a week; C, prophylactic intraperitoneal injection of anti-human Pear1 monoclonal antibody 1 mg/kg, once a week. After the mice were euthanized at 2 time points of 2 weeks and 4 weeks, an inverted “U”-shaped incision was selected to enter the abdomen, avoiding the original surgical incision. […] And the degree of adhesion in the peritoneal adhesion model was evaluated.
(§2) For fibroblast-specific Pear1 knockout mice, a peritoneal adhesion model was used to form a sham operation on the mice. The model preparation and animal grouping were as described above.
The formation of tissue adhesion depends on the synthesis of collagen and hydroxyproline is the precursor of collagen synthesis. […]

[5] = system: humanized Pear1 mice; experiment: Peritoneal adhesion model, indicators related to adhesion (immunohistochemistry or RT-PCR); format: in vivo; conditions: versus control group
Source text: as §1, §2
Immunohistochemistry or RT-PCR was used to measure some indicators related to adhesion formation to reflect the severity of adhesion, such as: fibrinogen (FIB), α-smooth actin (α-SMA), MMPs/TIMPs, transforming growth factor (TGF-β1), vascular endothelial growth factor (VEGF).

[6] = 0.5 mg/kg intraperitoneal once a week, 2 weeks (n = 8)
[7] = 1.0 mg/kg intraperitoneal once a week, 2 weeks (n = 8)
[8] = 1.0 mg/kg intraperitoneal once a week, 4 weeks (n = 8)
[9] = 0.5 mg/kg intraperitoneal once a week, 4 weeks (n = 8)

B1: LF2: anti-human Pear1 monoclonal antibody; VH SEQ ID NO: 1, VL SEQ ID NO: 16 (antibody, V domains shown)
VH: EVQLQQSGPELVKPGASMKISCKASGYSFTGYPMNWVRQSHVKNLEWIGVINPYNGGTSYNQKFKGKATLTVDKSSSTAYIELLSLTSDDSAVYYCARGGVRPFAYWGQGTLVTVSA
VL: DIQMTQTSSSFSVSLGDRVTITCKASEDIYNRLAWYQQKPGNAPRLLISGATSLETGVPSRFSGSGSGNDYTLSITSLQTEDVATYYCQQYWSTPTFGAGTKLELQ
For B1, the “ability to synthesize extracellular matrix” value [1] was “inhibited”, the activation of fibroblasts [1] was “inhibited” and the “collagen deposition in the subcutaneous mucosa at wounded sites (Masson staining)” value [2] was “less collagen deposition”. The “dermal thickness at wounded sites (HE staining)” value [2] was “smaller dermal thickness”, the “fibroblasts at wounded sites (HE staining)” value [2] was “fewer fibroblasts” and the BhatiaDS score [3, 6] was “I (grade I: adhesive area of the area treated in the caecums of vermiform/total area of the treated area<50%, easy for blunt separation)”. The BhatiaDS score [3, 7] was “III”, the BhatiaDS score [3, 8] was “I (grade I: adhesive area of the area treated in the caecums of vermiform/total area of the treated area<50%, easy for blunt separation)” and the “BhatiaDS score compared with the control group” value ([3]; versus control group, especially in the high-dose group (1.0 mg/kg)) was “significantly lower”. For the same molecule, the “hydroxyproline content in tissues” value [4] was “significantly lower” and the “indicators related to adhesion (FIB, α-SMA, MMPs/TIMPs, TGF-β1, VEGF)” value [5] was “significantly lower”.

B2: hLF-N55Q: humanized anti-human Pear1 antibody; VH SEQ ID NO: 13, VL SEQ ID NO: 22 (antibody, V domains shown)
VH: QVQLVQSGAEVKKPGASVKVSCKASGYTFTGYPMNWVRQAPGKRLEWMGVINPYQGGTSYNQKFKGRATLTVDTSASTAYMELSSLRSEDTAVYYCARGGVRPFAYWGQGTLVTVSS
VL: DIQMTQSPSSLSASVGDRVTITCKASEDIYNRLAWYQQKPGKAPKLLISGATSLETGVPSRFSGSGSGNDFTLTISSLQPEDFATYYCQQYWSTPTFGQGTKLEIK
For B2, the BhatiaDS score [3, 6] was “II (grade II: above-mentioned area ratio≥50%, easy for blunt dissection)”, the BhatiaDS score [3, 9] was “I (grade I: adhesive area of the area treated in the caecums of vermiform/total area of the treated area<50%, easy for blunt separation)” and the BhatiaDS score [3, 7] was “III”. The BhatiaDS score [3, 8] was “I (grade I: adhesive area of the area treated in the caecums of vermiform/total area of the treated area<50%, easy for blunt separation)”.

B3: hLF107: humanized anti-human Pear1 antibody; VH SEQ ID NO: 8, VL SEQ ID NO: 24 (antibody, V domains shown)
VH: QVQLVQSGAEVKKPGASVKVSCKASGYTFTGYPMNWVRQAPGKRLEWMGVINPYNGGTSYNQKFKGRATLTVDTSASTAYMELSSLRSEDTAVYYCARGGVRPFAYWGQGTLVTVSS
VL: DIQMTQSPSSLSASVGDRVTITCKASEDIYNRLAWYQQKPGKAPKLLISGATSLETGVPSRFSGSGSGNDYTLTISSLQPEDFATYYCQQYWSTPTFGQGTKLEIK
With B3 the BhatiaDS score [3, 6] was “II (grade II: above-mentioned area ratio≥50%, easy for blunt dissection)”, the BhatiaDS score [3, 9] was “I (grade I: adhesive area of the area treated in the caecums of vermiform/total area of the treated area<50%, easy for blunt separation)” and the BhatiaDS score [3, 7] was “IV”. The BhatiaDS score [3, 8] was “II (grade II: above-mentioned area ratio≥50%, easy for blunt dissection)”.

B4: hLF110: humanized anti-human Pear1 antibody; VH SEQ ID NO: 9, VL SEQ ID NO: 23 (antibody, V domains shown)
VH: QVQLVQSGAEVKKPGASVKVSCKASGYTFTGYPMNWVRQAPGQNLEWMGVINPYNGGTSYNQKFKGRVTLTVDKSASTAYMELSSLRSEDTAVYYCARGGVRPFAYWGQGTLVTVSS
VL: DIQMTQSPSSLSASVGDRVTITCKASEDIYNRLAWYQQKPGNAPKLLISGATSLETGVPSRFSGSGSGNDFTLTISSLQPEDFATYYCQQYWSTPTFGQGTKLEIK
In the case of B4, the BhatiaDS score [3, 6] is reported as “I (grade I: adhesive area of the area treated in the caecums of vermiform/total area of the treated area<50%, easy for blunt separation)”, the BhatiaDS score [3, 9] is reported as 0 and the BhatiaDS score [3, 7] is reported as “III”. The BhatiaDS score [3, 8] was “I (grade I: adhesive area of the area treated in the caecums of vermiform/total area of the treated area<50%, easy for blunt separation)”.
